{
  "source": "paper doi:10.1101/2021.12.23.474050",
  "biological_target": "wild-type (WT) RBD of the SARS-CoV-2 spike protein (SARS-CoV-2) (UniProt P0DTC2)",
  "experiment": "ITC",
  "data": [
    {"substance": "CC12.1 ScFv", "values": [
      {"measurement": "Kd", "result": 23.9, "unit": "nM"}
    ]}
  ]
}
